According to US20050226885A1:
Where “and” joins values, the source holds several entries; their conditions need not be identical. Identical values can stand only once.

Target: C215 antigen (human GA-733 antigen recognized by the C215 mAb) (human) (UniProt P16422)
Assay: FACS on Colo205 cells

Chain of UniProt P16422 (P16422 24-314): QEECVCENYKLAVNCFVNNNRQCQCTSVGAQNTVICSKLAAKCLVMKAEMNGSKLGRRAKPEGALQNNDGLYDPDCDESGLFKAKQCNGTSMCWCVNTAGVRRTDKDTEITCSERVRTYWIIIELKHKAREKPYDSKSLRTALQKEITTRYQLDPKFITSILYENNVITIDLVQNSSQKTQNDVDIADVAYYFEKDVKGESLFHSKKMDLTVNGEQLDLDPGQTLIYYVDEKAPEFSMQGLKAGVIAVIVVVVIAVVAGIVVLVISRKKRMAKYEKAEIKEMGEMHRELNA

Q: “CD80-C215Fab (from UniProt P33681 35-242)” was tested. Which fold lower binding than that of C215Fab-SEA did it give?
A: 50 fold lower and 100 fold lower

Q: What about the fold reduction of binding compared to C215Fab-SEA of the same substance?
A: 100 fold reduced
